Data from patent US10800813 (Bicycle, dated 2020).
Read-outs that look alike come from different tables or passages of the source. Numbered stars: 1 amine (or outer) side, 2 acyl side, 3 side chain; on linkers, the order of the positions; unused ones are H or OH. Bridge positions count the residues as written; N and C are the ends. Square brackets hold non-standard residues; d marks the D form. Ends that are not written are not given here. NMeW = CN[C@@H](Cc1c[nH]c2ccccc12)C(=O)O; TBMB = c1c(C[*:1])cc(C[*:3])cc1C[*:2]; Agb = N=C(N)NCC[C@H](N)C(=O)O; Agp = N=C(N)NC[C@H](N)C(=O)O; NMeC = CN[C@@H](CS)C(=O)O; NMeS = CN[C@@H](CO)C(=O)O; NMeA = CN[C@@H](C)C(=O)O

Tests used:
Test in all cases: enzyme inhibition assay
[1] = biological target: T1, human plasma Kallikrein (human, UniProt P03952 20-638, limits assumed)
T1 construct: also called hPK; human PK

[2] = biological target: T1, human plasma Kallikrein; remark: listed apart in the source
[3] = biological target: T1, human plasma Kallikrein; remark: listed apart in the source
[4] = biological target: T1, human plasma Kallikrein; remark: listed apart in the source
[5] = biological target: T2, Rat plasma Kallikrein (rat, UniProt P14272 391-638, limits assumed)
T2 construct: domain: catalytic domain; also called rPK; rat PK

[6] = biological target: T1, human plasma Kallikrein; remark: listed apart in the source

T1 sequence (P03952 20-638 limits assumed): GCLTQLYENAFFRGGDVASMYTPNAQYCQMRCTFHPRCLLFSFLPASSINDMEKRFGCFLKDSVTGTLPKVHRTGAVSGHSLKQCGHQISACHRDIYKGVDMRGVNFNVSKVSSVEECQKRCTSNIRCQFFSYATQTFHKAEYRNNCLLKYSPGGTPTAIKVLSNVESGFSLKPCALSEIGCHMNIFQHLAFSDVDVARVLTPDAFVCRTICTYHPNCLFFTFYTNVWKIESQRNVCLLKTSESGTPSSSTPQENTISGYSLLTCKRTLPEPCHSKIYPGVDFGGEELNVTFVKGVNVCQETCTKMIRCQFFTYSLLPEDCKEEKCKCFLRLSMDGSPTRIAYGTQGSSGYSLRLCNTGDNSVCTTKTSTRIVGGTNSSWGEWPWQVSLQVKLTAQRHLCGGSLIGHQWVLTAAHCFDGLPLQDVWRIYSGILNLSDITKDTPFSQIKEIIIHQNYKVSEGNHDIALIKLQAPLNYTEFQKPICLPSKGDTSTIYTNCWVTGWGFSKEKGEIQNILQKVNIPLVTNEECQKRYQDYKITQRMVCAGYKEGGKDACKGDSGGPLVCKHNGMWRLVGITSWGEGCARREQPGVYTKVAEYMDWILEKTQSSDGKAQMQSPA
T2 sequence (P14272 391-638 limits assumed): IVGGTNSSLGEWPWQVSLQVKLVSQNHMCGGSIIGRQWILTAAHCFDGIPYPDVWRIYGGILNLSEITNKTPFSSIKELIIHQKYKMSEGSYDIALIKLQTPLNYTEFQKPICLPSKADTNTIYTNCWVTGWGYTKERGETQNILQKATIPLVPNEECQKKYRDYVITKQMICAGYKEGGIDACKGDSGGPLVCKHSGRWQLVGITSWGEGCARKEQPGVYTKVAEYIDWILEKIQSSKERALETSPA

B1: Ac-(06-34-18) NMeSer1 (peptide)
peptide: Ac-C[NMeS]WPARCLHQDLC-NH2
modifications: linker 1-7-13 via TBMB
SMILES: CC(=O)N[C@H]1CSCc2cc3cc(c2)CSC[C@H](NC(=O)[C@H](CCCNC(=N)N)NC(=O)[C@H](C)NC(=O)[C@@H]2CCCN2C(=O)[C@H](Cc2c[nH]c4ccccc24)NC(=O)[C@H](CO)N(C)C1=O)C(=O)N[C@@H](CC(C)C)C(=O)N[C@@H](Cc1c[nH]cn1)C(=O)N[C@@H](CCC(N)=O)C(=O)N[C@@H](CC(=O)O)C(=O)N[C@@H](CC(C)C)C(=O)N[C@H](C(N)=O)CSC3
Ki [1]: 0.5 nM

B2: Ac-(06-34-18) Scram 2 (peptide)
peptide: Ac-CWASPRCLHQDLC-NH2
modifications: linker 1-7-13 via TBMB
SMILES: CC(=O)N[C@H]1CSCc2cc3cc(c2)CSC[C@H](NC(=O)[C@H](CCCNC(=N)N)NC(=O)[C@@H]2CCCN2C(=O)[C@H](CO)NC(=O)[C@H](C)NC(=O)[C@H](Cc2c[nH]c4ccccc24)NC1=O)C(=O)N[C@@H](CC(C)C)C(=O)N[C@@H](Cc1c[nH]cn1)C(=O)N[C@@H](CCC(N)=O)C(=O)N[C@@H](CC(=O)O)C(=O)N[C@@H](CC(C)C)C(=O)N[C@H](C(N)=O)CSC3
Ki [2]: 11400 nM

B3: Ac-(06-34-18) NMeAla4 (peptide)
peptide: Ac-CSWP[NMeA]RCLHQDLC-NH2
modifications: linker 1-7-13 via TBMB
SMILES: CC(=O)N[C@H]1CSCc2cc3cc(c2)CSC[C@H](NC(=O)[C@H](CCCNC(=N)N)NC(=O)[C@H](C)N(C)C(=O)[C@@H]2CCCN2C(=O)[C@H](Cc2c[nH]c4ccccc24)NC(=O)[C@H](CO)NC1=O)C(=O)N[C@@H](CC(C)C)C(=O)N[C@@H](Cc1c[nH]cn1)C(=O)N[C@@H](CCC(N)=O)C(=O)N[C@@H](CC(=O)O)C(=O)N[C@@H](CC(C)C)C(=O)N[C@H](C(N)=O)CSC3
Ki [1]: 343 nM

B4: Ac-(06-34-18) NMeSer1, NMeAla4 (peptide)
peptide: Ac-C[NMeS]WP[NMeA]RCLHQDLC-NH2
modifications: linker 1-7-13 via TBMB
SMILES: CC(=O)N[C@H]1CSCc2cc3cc(c2)CSC[C@H](NC(=O)[C@H](CCCNC(=N)N)NC(=O)[C@H](C)N(C)C(=O)[C@@H]2CCCN2C(=O)[C@H](Cc2c[nH]c4ccccc24)NC(=O)[C@H](CO)N(C)C1=O)C(=O)N[C@@H](CC(C)C)C(=O)N[C@@H](Cc1c[nH]cn1)C(=O)N[C@@H](CCC(N)=O)C(=O)N[C@@H](CC(=O)O)C(=O)N[C@@H](CC(C)C)C(=O)N[C@H](C(N)=O)CSC3
Ki [1]: 444 nM

B5: Ac-(06-34-18) Scram 1 (peptide)
peptide: Ac-CPSAWRCLHQDLC-NH2
modifications: linker 1-7-13 via TBMB
SMILES: CC(=O)N[C@H]1CSCc2cc3cc(c2)CSC[C@H](NC(=O)[C@H](CCCNC(=N)N)NC(=O)[C@H](Cc2c[nH]c4ccccc24)NC(=O)[C@H](C)NC(=O)[C@H](CO)NC(=O)[C@@H]2CCCN2C1=O)C(=O)N[C@@H](CC(C)C)C(=O)N[C@@H](Cc1c[nH]cn1)C(=O)N[C@@H](CCC(N)=O)C(=O)N[C@@H](CC(=O)O)C(=O)N[C@@H](CC(C)C)C(=O)N[C@H](C(N)=O)CSC3
Ki [2]: 1090 nM

B6: Ac-(06-34-18) NMeTrp2 (peptide)
peptide: Ac-CS[NMeW]PARCLHQDLC-NH2
modifications: linker 1-7-13 via TBMB
SMILES: CC(=O)N[C@H]1CSCc2cc3cc(c2)CSC[C@H](NC(=O)[C@H](CCCNC(=N)N)NC(=O)[C@H](C)NC(=O)[C@@H]2CCCN2C(=O)[C@H](Cc2c[nH]c4ccccc24)N(C)C(=O)[C@H](CO)NC1=O)C(=O)N[C@@H](CC(C)C)C(=O)N[C@@H](Cc1c[nH]cn1)C(=O)N[C@@H](CCC(N)=O)C(=O)N[C@@H](CC(=O)O)C(=O)N[C@@H](CC(C)C)C(=O)N[C@H](C(N)=O)CSC3
Ki [1]: 228 nM

B7: Ac-(06-34-18) Agb5 (peptide)
peptide: Ac-CSWPA[Agb]CLHQDLC-NH2
modifications: linker 1-7-13 via TBMB
SMILES: CC(=O)N[C@H]1CSCc2cc3cc(c2)CSC[C@H](NC(=O)[C@H](CCNC(=N)N)NC(=O)[C@H](C)NC(=O)[C@@H]2CCCN2C(=O)[C@H](Cc2c[nH]c4ccccc24)NC(=O)[C@H](CO)NC1=O)C(=O)N[C@@H](CC(C)C)C(=O)N[C@@H](Cc1c[nH]cn1)C(=O)N[C@@H](CCC(N)=O)C(=O)N[C@@H](CC(=O)O)C(=O)N[C@@H](CC(C)C)C(=O)N[C@H](C(N)=O)CSC3
Ki [3]: 83 nM

B8: Ac-(06-34-18) Scram 4 (peptide)
peptide: Ac-CWARSPCLHQDLC-NH2
modifications: linker 1-7-13 via TBMB
SMILES: CC(=O)N[C@H]1CSCc2cc3cc(c2)CSC[C@H](NC(=O)[C@@H]2CCCN2C(=O)[C@H](CO)NC(=O)[C@H](CCCNC(=N)N)NC(=O)[C@H](C)NC(=O)[C@H](Cc2c[nH]c4ccccc24)NC1=O)C(=O)N[C@@H](CC(C)C)C(=O)N[C@@H](Cc1c[nH]cn1)C(=O)N[C@@H](CCC(N)=O)C(=O)N[C@@H](CC(=O)O)C(=O)N[C@@H](CC(C)C)C(=O)N[C@H](C(N)=O)CSC3
Ki [2]: 67500 nM

B9: Ac-(06-34-18) NMeCys2 (peptide)
peptide: Ac-CSWPAR[NMeC]LHQDLC-NH2
modifications: linker 1-7-13 via TBMB
SMILES: CC(=O)N[C@H]1CSCc2cc3cc(c2)CSC[C@@H](C(=O)N[C@@H](CC(C)C)C(=O)N[C@@H](Cc2c[nH]cn2)C(=O)N[C@@H](CCC(N)=O)C(=O)N[C@@H](CC(=O)O)C(=O)N[C@@H](CC(C)C)C(=O)N[C@H](C(N)=O)CSC3)N(C)C(=O)[C@H](CCCNC(=N)N)NC(=O)[C@H](C)NC(=O)[C@@H]2CCCN2C(=O)[C@H](Cc2c[nH]c3ccccc23)NC(=O)[C@H](CO)NC1=O
Ki [1]: 418 nM

B10: Ac-(06-34-18) A2A3 (peptide)
peptide: Ac-CSAAARCLHQDLC-NH2
modifications: linker 1-7-13 via TBMB
SMILES: CC(=O)N[C@H]1CSCc2cc3cc(c2)CSC[C@H](NC(=O)[C@H](CCCNC(=N)N)NC(=O)[C@H](C)NC(=O)[C@H](C)NC(=O)[C@H](C)NC(=O)[C@H](CO)NC1=O)C(=O)N[C@@H](CC(C)C)C(=O)N[C@@H](Cc1c[nH]cn1)C(=O)N[C@@H](CCC(N)=O)C(=O)N[C@@H](CC(=O)O)C(=O)N[C@@H](CC(C)C)C(=O)N[C@H](C(N)=O)CSC3
fold reduction of binding against Ac-06-34-18(TMB)-NH2 [4]: ~100000 fold
Ki [2]: 18500 nM

B11: Ac-(06-34-18) A2Q3 (peptide)
peptide: Ac-CSAQARCLHQDLC-NH2
modifications: linker 1-7-13 via TBMB
SMILES: CC(=O)N[C@H]1CSCc2cc3cc(c2)CSC[C@H](NC(=O)[C@H](CCCNC(=N)N)NC(=O)[C@H](C)NC(=O)[C@H](CCC(N)=O)NC(=O)[C@H](C)NC(=O)[C@H](CO)NC1=O)C(=O)N[C@@H](CC(C)C)C(=O)N[C@@H](Cc1c[nH]cn1)C(=O)N[C@@H](CCC(N)=O)C(=O)N[C@@H](CC(=O)O)C(=O)N[C@@H](CC(C)C)C(=O)N[C@H](C(N)=O)CSC3
fold reduction of binding against Ac-06-34-18(TMB)-NH2 [4]: ~100000 fold
Ki [2]: 15800 nM

B12: Ac-(06-34-18) Scram 3 (peptide)
peptide: Ac-CAPWSRCLHQDLC-NH2
modifications: linker 1-7-13 via TBMB
SMILES: CC(=O)N[C@H]1CSCc2cc3cc(c2)CSC[C@H](NC(=O)[C@H](CCCNC(=N)N)NC(=O)[C@H](CO)NC(=O)[C@H](Cc2c[nH]c4ccccc24)NC(=O)[C@@H]2CCCN2C(=O)[C@H](C)NC1=O)C(=O)N[C@@H](CC(C)C)C(=O)N[C@@H](Cc1c[nH]cn1)C(=O)N[C@@H](CCC(N)=O)C(=O)N[C@@H](CC(=O)O)C(=O)N[C@@H](CC(C)C)C(=O)N[C@H](C(N)=O)CSC3
Ki [2]: 1890 nM

ACSWPARCVHQDLCA (linker 2-8-14 via TBMB; not fully specified (N-terminus, C-terminus)) [06-34-01]
IC50 [5]: 6.12 nM
IC50 [6]: 0.15 nM

ACRWPARCMHQDLCA (linker 2-8-14 via TBMB; not fully specified (N-terminus, C-terminus)) [06-34-04]
IC50 [5]: 0.56 nM
IC50 [6]: 0.075 nM

ACRWPARCLHQDLCA (linker 2-8-14 via TBMB; not fully specified (N-terminus, C-terminus)) [06-34-05]
IC50 [5]: 0.62 nM
IC50 [6]: 0.076 nM

ACSWPARCMHQDLCA (linker 2-8-14 via TBMB; not fully specified (N-terminus, C-terminus)) [06-34-17 (01 + 04)]
IC50 [5]: 0.44 nM
IC50 [6]: 0.073 nM

ACSWPARCTHQDLCA (linker 2-8-14 via TBMB; not fully specified (N-terminus, C-terminus)) [06-34-03 (01 + 02)]
IC50 [5]: 0.87 nM
IC50 [6]: 0.082 nM

ACRWPARCTHQDLCA (linker 2-8-14 via TBMB; not fully specified (N-terminus, C-terminus)) [06-34-02]
IC50 [5]: 1.09 nM
IC50 [6]: 0.16 nM

B13: Ac-(06-34-18) Agp5 (peptide)
peptide: Ac-CSWPA[Agp]CLHQDLC-NH2
modifications: linker 1-7-13 via TBMB
SMILES: CC(=O)N[C@H]1CSCc2cc3cc(c2)CSC[C@H](NC(=O)[C@H](CNC(=N)N)NC(=O)[C@H](C)NC(=O)[C@@H]2CCCN2C(=O)[C@H](Cc2c[nH]c4ccccc24)NC(=O)[C@H](CO)NC1=O)C(=O)N[C@@H](CC(C)C)C(=O)N[C@@H](Cc1c[nH]cn1)C(=O)N[C@@H](CCC(N)=O)C(=O)N[C@@H](CC(=O)O)C(=O)N[C@@H](CC(C)C)C(=O)N[C@H](C(N)=O)CSC3
Ki [3]: 1770 nM
